One series has as its target PDIA6 a^0 domain (human). The experiment in a line: co-sedimentation.
The series “native MS” concerns the molecule itself. The experiment in a line: native MS.

Data on 2 molecules can be found in article doi:10.1101/2024.07.30.605722 (bioRxiv, 2024).

In the series with PDIA6 a^0 domain (human), “MBP fusion protein of PDIA6 b domain (domain or fragment)” displayed a b amount left in the supernatant of 60%.

B1: PDIA6 (enzyme, human, UniProt Q15084 20-440, looked up)
chain: LYSSSDDVIELTPSNFNREVIQSDSLWLVEFYAPWCGHCQRLTPEWKKAATALKDVVKVGAVDADKHHSLGGQYGVQGFPTIKIFGSNKNRPEDYQGGRTGEAIVDAALSALRQLVKDRLGGRSGGYSSGKQGRSDSSSKKDVIELTDDSFDKNVLDSEDVWMVEFYAPWCGHCKNLEPEWAAAASEVKEQTKGKVKLAAVDATVNQVLASRYGIRGFPTIKIFQKGESPVDYDGGRTRSDIVSRALDLFSDNAPPPELLEIINEDIAKRTCEEHQLCVVAVLPHILDTGAAGRNSYLEVLLKLADKYKKKMWGWLWTEAGAQSELETALGIGGFGYPAMAAINARKMKFALLKGSFSEQGINEFLRELSFGRGSTAPVGGGAFPTIVEREPWDGRDGELPVEDDIDLSDVELDDLGKDEL
Usually stoichiometry N stands for the number of molecules, sites or subunits per partner or assembly. With B1, in the series “native MS”, the “stoichiometry N” value is 2.
